Data taken from the Human Domainome abundance scans (Beltran et al. 2025).

B1: Serine/threonine-protein kinase A-Raf, residues 21 to 89; numbered along this chain, P10398 (parent)
chain: VKVYLPNKQRTVVTVRDGMSVYDSLDKALKVRGLNQDCCVVYRLIKGRKTVTAWDTAIAPLDGEELIVE
B2: Formin-binding protein 4, residues 593 to 636; numbered along this chain, Q8N3X1 (parent)
chain: EINATPKGWSCHWDRDHRRYFYVNEQSGESQWEFPDGEEEEEES

Variants of: B1
Assay: abundance fitness (aPCA) (normalised: wild type 0, dead -1); higher = more abundant; growth selection in yeast, the domain comes from the species named
Conditions: Homo sapiens

Abundance fitness of substitutions, site by site:
A53: M -0.549, E 0.08
W54: N -0.917
D23: W -0.338, R -0.283
S24: H -0.949
N7: K -0.343, L -0.735, E -0.17
T14: F -0.01
Y42: K -0.481
Q9: E -0.008, I -0.162
R32: T -0.2
S20: V -0.876
T11: E -0.108
D62: T -0.111
M19: P -0.778
P60: W -0.199
L5: M -0.064, F 0.102, C -0.784
L34: V -1
K30: S -0.265
Y4: E -0.133
I45: C -0.458
T52: W -0.31
V12: T -0.096
V40: M -0.058
A59: I 0.131
R10: A -0.15
V13: S -1
G63: E -0.486
Y22: M -0.142
L61: A -0.168
D55: H -0.234
E65: T -0.01
V21: P -0.99

Variants of: B2
Assay: as above
Conditions: Homo sapiens

Abundance fitness, by site and new letter:
E1: A -0.14, D -0.154, G -0.433, K 0.036, M -0.019, N -0.304, R -0.186, V -0.499, W -0.061
I2: A -0.518, E -0.173, L -0.208, P -0.094, R -0.006, S 0.142, V -0.204, W -0.283, Y -0.02
N3: A -0.177, C -0.304, D 0.157, E 0.185, G -0.098, H -0.128, L -0.239, M 0.323, Q 0.041, R -0.169, S -0.072, T -0.355, V -0.093, Y -0.062
A4: E 0.081, G 0.033, K -0.008, L 0.019, M 0.036, N 0.2, P 0.086, Q -0.122, R -0.01, S -0.306, T -0.032, V -0.132
T5: A -0.387, C 0.052, D -0.463, F -0.306, G -0.393, H -0.534, K 0.67, L 0.213, M -0.054, Q -0.358, R -0.345, S -0.81, V 0.065, W -0.19
P6: G -0.587, S -0.412
K7: A -0.079, D -0.123, F -0.303, G -0.577, H 0.125, L -0.299, R -0.074, S -0.214, T -0.456, V -0.065
G8: A -0.707, C -0.471, E -0.438, I -0.496, K -0.408, L -0.795, M -0.605, N -0.373, Q -0.612, R -0.621, S -0.623, T -0.843, V -0.664
W9: A -0.568, C -0.56, D -0.742, E -0.661, G -0.423, K -0.619, L -0.719, M -0.591, P -0.512, Q -0.498, R -0.817, S -0.368, V -0.629, Y -0.534
S10: D -0.465, E -0.381, G -0.528, H -0.502, K -0.212, L -0.345, M -0.389, P -0.91, Q -0.183, R -0.265, T -0.288, V -0.186, W -1.06, Y -0.521
C11: G 0.037, K -0.025, V -0.257
H12: C -0.302, D -0.646, E -0.049, G -0.379, K -0.179, L -0.306, M -0.498, N -0.287, P -0.822, Q -0.432, R -0.17, S -0.453, T -0.407, V -0.21, W -0.637, Y -0.227
W13: A -0.571, C -0.497, D -0.71, E -0.456, F -0.095, G -0.544, H -0.499, I -0.986, K -0.545, L -0.46, M -0.542, P -0.404, Q -0.546, R -0.738, S -0.662, Y -0.189
D14: A -0.514, C -0.341, E -0.685, F -0.75, G -0.963, H -0.289, I -0.799, K -0.928, M -0.682, P -1.12, Q -0.667, R -0.843, S -0.141, T -0.747, V -0.811, W -1.4, Y -1.24
R15: A -0.059, C -0.204, D -0.007, E 0.123, F -0.188, G -0.032, H 0.116, I 0.373, K 0.14, L -0.167, M -0.18, N -0.05, P -0.118, Q 0.139, S 0.019, T -0.162, W -0.315, Y -0.302
D16: A -0.234, C -0.225, F -0.362, G -0.239, H -0.168, K -0.169, L -0.447, Q -0.075, R -0.274, S -0.24, T -0.064, V -0.253, W -0.218
H17: A 0.037, D -0.201, E 0.088, F -0.025, G -0.274, K 0.207, L 0.007, M -0.235, P -1, Q 0.186, R 0.046, S -0.01, V -0.208, W -0.486, Y -0.156
R18: A 0.012, C -0.183, G 0.063, H -0.11, L 0.016, M -0.124, P -0.635, T -0.344, V -0.421, W -0.571
R19: C -0.207, E -0.406, G -0.485, K -0.058, L -0.423, M -0.21, N -0.506, P -1.24, Q -0.092, S -0.391, T -0.621, V -0.491, Y -0.864
Y20: A -0.3, C -0.196, D -0.64, E -0.488, G -0.605, K -0.319, M -0.205, N -0.059, P -0.143, Q -0.285, R -0.229, S -0.353, T -0.277, V -0.206, W 0.072
F21: A -0.179, C 0.058, E -0.145, G -0.368, H -0.391, K -0.067, L -0.051, M -0.048, P -0.303, Q -0.223, R 0.187, T -0.111, V 0.113, W -0.275
Y22: A -0.572, D -0.552, E -0.482, G -0.544, I -0.515, K 0.291, M -0.492, N -0.092, Q -0.439, S -0.322, T -0.402, V -0.692, W 0.035
V23: A -0.347, C -0.765, D -0.513, E -0.26, F -0.367, G -0.607, K 0.074, L -0.024, M -0.331, P -0.736, Q -0.179, R -0.039, T 0.324
N24: A -0.62, C -0.226, D -0.362, E -0.335, F -0.687, G -0.611, I -1.14, K -0.23, L -1
